Results: publication PMC3871639

Molecular target: T1, Stat5 (mouse liver nuclear extract, identified by WEMSA immunoblot) (mouse) (UniProt P42232)
T1 sequence: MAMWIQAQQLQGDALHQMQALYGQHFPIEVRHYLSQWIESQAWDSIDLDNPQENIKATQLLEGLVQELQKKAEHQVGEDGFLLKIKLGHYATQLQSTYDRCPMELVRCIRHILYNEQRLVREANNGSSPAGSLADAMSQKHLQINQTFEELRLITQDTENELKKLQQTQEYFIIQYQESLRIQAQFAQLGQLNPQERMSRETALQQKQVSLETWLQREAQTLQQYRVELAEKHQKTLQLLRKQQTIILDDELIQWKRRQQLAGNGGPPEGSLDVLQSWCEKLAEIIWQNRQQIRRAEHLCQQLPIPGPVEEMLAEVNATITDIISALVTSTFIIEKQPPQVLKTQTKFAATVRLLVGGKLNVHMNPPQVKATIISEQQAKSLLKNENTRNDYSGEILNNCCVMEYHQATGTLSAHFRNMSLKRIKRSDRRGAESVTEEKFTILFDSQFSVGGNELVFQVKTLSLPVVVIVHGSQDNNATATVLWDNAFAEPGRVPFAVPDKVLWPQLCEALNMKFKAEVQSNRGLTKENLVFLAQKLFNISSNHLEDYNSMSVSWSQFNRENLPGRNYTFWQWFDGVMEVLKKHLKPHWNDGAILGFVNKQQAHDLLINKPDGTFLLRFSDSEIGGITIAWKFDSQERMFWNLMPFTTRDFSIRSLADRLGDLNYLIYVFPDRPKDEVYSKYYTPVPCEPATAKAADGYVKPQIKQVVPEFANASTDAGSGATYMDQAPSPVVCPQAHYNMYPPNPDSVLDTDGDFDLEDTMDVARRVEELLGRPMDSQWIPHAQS
Assay: EMSA + immunoblot of shifted complex (WEMSA)
Conditions: Li-Cor EMSA buffer kit: 1x binding buffer, poly(dI-dC) 1 ug/uL (in 10 mM Tris, 1 mM EDTA, pH 7.5), 25 mM DTT/2.5% Tween-20, 1% NP-40, 100 mM MgCl2 (as listed …)

In the case of “GTAATTCCTAGATTCATGGAAGAG (double strand) [Stat5 element probe of mouse Tmprss6 promoter]”, the binding signal (% of baseline shift (decreased by 60%)) is reported as 40.
